The values that follow come from paper PMC4334968.

For experiment [1], the target named is human retromer trimer assembled from Vps26, Vps29 and GST-tagged Vps35, Q96QK1;Q9UBQ0;O75436. As to the kind of experiment: pull-down on immobilized purified retromer trimer, anti-His immunoblot quantified. As to conditions: read off a plot. A general note: In western blotting, separated proteins are transferred to a membrane and probed.
Experiment [2] addresses endogenous retromer (Vps26, Vps29, Vps35) (human (endogenous in HeLa and HaCaT)) (UniProt Q96QK1). As to the kind of experiment: proximity ligation.

“Maltose binding protein (MBP)-L2-6His fusion protein, wild-type HPV16 L2 amino acids 434-457 F446A; Y447A; L448A; Y452A; Y453A; M454A; L455A”: the ratio to parent in experiment [1] (5 µM MBP-L2, parent: est. 0.18) was 0.17; in experiment [1] (10 µM MBP-L2, parent: est. 1.0), 0.21.
As to “HPV16 L2 double mutant (FYL/AAA and YYML/AAAA) with a carboxy-terminal 3xFLAG tag, in pseudovirus (from UniProt P03107 1-473) (natural protein)”, in experiment [2], the percent decrease of the PLA signal against wild-type PsV at eight hours is 70%.
On to “Maltose binding protein (MBP)-L2-6His fusion protein, wild-type HPV16 L2 amino acids 434-457 F446A; Y447A; L448A”, for which the ratio to parent came out at 0.2 in experiment [1] (5 µM MBP-L2, parent: est. 0.18) and 0.28 in experiment [1] (10 µM MBP-L2, parent: est. 1.0).
The corresponding values for “Maltose binding protein (MBP)-L2-6His fusion protein, wild-type HPV16 L2 amino acids 434-457 Y452A; Y453A; M454A; L455A” are 0.29 and 0.38.
